According to article PMC5084695 (Biochemistry, 2016):

Target: the molecule itself
Test: SEC-MALS

B1: SbnA (wild type, Staphylococcus aureus strain Newman) (enzyme, UniProt A6QDA0 1-326, looked up)
chain: MIEKSQACHDSLLDSVGQTPMVQLHQLFPKHEVFAKLEYMNPGGSMKDRPAKYIIEHGIKHGLITENTHLIESTSGNLGIALAMIAKIKGLKLTCVVDPKISPTNLKIIKSYGANVEMVEEPDAHGGYLMTRIAKVQELLATIDDAYWINQYANELNWQSHYHGAGTEIVETIKQPIDYFVAPVSTTGSIMGMSRKIKEVHPNAQIVAVDAKGSVIFGDKPINRELPGIGASRVPEILNRSEINQVIHVDDYQSALGCRKLIDYEGIFAGGSTGSIIAAIEQLITSIEEGATIVTILPDRGDRYLDLVYSDTWLEKMKSRQGVKSE
modifications: PLP (pyridoxal 5'-phosphate) covalently bound to Lys47 by an internal Schiff base (as isolated)
stoichiometry N: 2
